Data published in patent US11549134B2, “Modified amadoriase and method for producing the same, agent for improving surfactant resistance of amadoriase and composition for measuring HbA1c using the same” (Kikkoman Corporation, priority 2013, dated 2023).

Key:
Type in all cases: biochemical
[1] = Surfactant resistance (residual activity), 0.04% SDS; details: 30 mM MES/21 mM Tris buffer (pH 6.5)
Description: (§1) An amadoriase crude enzyme solution or an amadoriase purified sample is diluted with a 30 mM MES/21 mM Tris buffer solution (pH6.5) so as to have a concentration of about 1.0 U/ml. To this, CTAC (for example, manufactured by Tokyo Kasei Kogyo Co., Ltd.) is added so as to obtain a final concentration 0.01% (w/v) or 0.04%. The resultant mixture is heated at 30° C. for 5 minutes. After heating, the mixture is diluted double with a 10 mM phosphate buffer (pH7.0) containing 0.15% BSA to prepare a sample. The enzyme activities of the sample before and after a surfactant treatment are measured by the method described in Section B above. […] In this manner, surfactant resistance is evaluated.
The stability of CFP-D was evaluated using sodium dodecyl sulfate (hereinafter indicated with “SDS”) in place of the surfactant CTAC used in Example 2. The surfactant resistance of the modified amadoriases was evaluated in accordance with a measurement method for surfactant resistance according to Example 1 although under surfactant treatment conditions in which the amadoriases were each diluted in a 30 mM MES/21 mM Tris buffer solution (pH 6.5) and mixed with 0.04% SDS. In this respect, it was confirmed that when the warmed sample was again measured for activity 30 minutes after 2-fold dilution in a BSA solution, there was no change in the activity value.

[2] = Surfactant resistance (residual activity) of CFP-D multiple variants, 0.04% CTAC; details: 30°C, 5 minutes, crude enzyme
Description: An amadoriase crude enzyme solution or an amadoriase purified sample is diluted with a 30 mM MES/21 mM Tris buffer solution (pH6.5) so as to have a concentration of about 1.0 U/ml. To this, CTAC (for example, manufactured by Tokyo Kasei Kogyo Co., Ltd.) is added so as to obtain a final concentration 0.01% (w/v) or 0.04%. The resultant mixture is heated at 30° C. for 5 minutes. After heating, the mixture is diluted double with a 10 mM phosphate buffer (pH7.0) containing 0.15% BSA to prepare a sample. The enzyme activities of the sample before and after a surfactant treatment are measured by the method described in Section B above. The ratio of activity of the sample after the surfactant treatment relative to the activity of the sample before the surfactant treatment (regarded as 100), i.e., the residual activity (%), is obtained. In this manner, surfactant resistance is evaluated. […]

[3] = Surfactant resistance (residual activity), 0.04% TTAC; details: 20 mM potassium phosphate buffer (pH 7.0)
Description: as §1
Tetradecyltrimethylammonium chloride (hereinafter indicated with “TTAC”) was used in place of the surfactant CTAC used in Example 2 to evaluate the stability of CFP-D. The surfactant resistance of various modified amadoriases was evaluated in accordance with a measurement method for surfactant resistance according to Example 1, although under surfactant treatment conditions in which the amadoriases were each diluted in a 20 mM potassium phosphate buffer solution (pH 7.0) and mixed with 0.04% TTAC. In this respect, it was confirmed that when the warmed sample was again measured for activity 30 minutes after 2-fold dilution in a BSA solution, there was no change in the activity value.

B1: CFP-D: amadoriase derived from the genus Coniochaeta with E98A, F43Y, G184D, deletion of 3 carboxy-terminal amino acid residues; SEQ ID NO: 3 (protein, listed as Coniochaeta sp.)
chain: MTSNRADTRVIVVGGGGTIGSSTALHLVRSGYAPANITVLDTYEIPSAQSAGHDLNKIMGIRLRNKVDLQMSLEARQMWKEDELFQPFFHNTGRMDCAHTPEGIEDLKKQYQALHDAGAGLEKTHAWLDNEDEILSKMPLLQRDQIQGWKAIWSQDGGWLAAAKAINAIGQFLKERGVKFGFGDAGSFKQPLFDDEGTTCIGVETADGTKYYADKVVLAAGAWSPTLVDLEDQCCSKAWVYAHIQLTPEEAAEYKGVPVVYNGEFGFFFEPDEFGVIKVCDEFPGFSRFKEHQPYGAPSPKRISVPRSHAKHPTDTYPDASEVSIKKAIATFLPRFQDKELFNRALCWCTDTADAALLMCEHPKWKNFILATGDSGHSFKILPNVGKYVVELIEGRLPEEMAYQWRWRPGGDALKSRRAAPPKDLADMPGWKHD
modifications: 3 C-terminal residues deleted
Residual Activity(%) [1]: 11.3%
Residual Activity(%) [2]: 12.7%
Residual Activity(%) [3]: 29.2%
